Target: human alpha-thrombin (human, UniProt P00734;P00734 328-363;364-622)
Test: BLI

For TCACTGTGGTTGGTGTGGTTGGTTTTTTTTTTTTACAGTG (structured_DNA) [ISD-Bt], the Kd was 246 nM.

GGTTGGTGTGGTTGG (structured_DNA) [TBA-Bt] was tested, and the Kd was 114 nM.

From paper doi:10.1101/2023.08.08.552518
